Values joined by “and” are separate entries in the source; they are usually repeats but may differ in a detail not shown here. Identical values can stand only once. Like-named read-outs stand apart in the source and are kept apart here.
T1: 27mer cyno CD3 polypeptide conjugated to biotin (cynomolgus monkey)
T1 sequence (peptide, biotin conjugated (site not stated)): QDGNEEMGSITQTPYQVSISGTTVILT


How the values were obtained:
[1] = target: T1, 27mer cyno CD3 polypeptide conjugated to biotin (cynomolgus monkey); assay: BIAcore T200 SPR; biotinylated 27mer CD3 peptide on SA chip; TDB flowed at 37 C
[2] = target: T1, 27mer cyno CD3 polypeptide conjugated to biotin (cynomolgus monkey); assay: as above; remark: listed apart in the source
[3] = target: cynomolgus monkey LY6G6D-Fc (cynomolgus monkey); assay: BIAcore SPR; two-cell TDB with 38E4.v1 arm
[4] = target: cynomolgus monkey LY6G6D-Fc (cynomolgus monkey); assay: BIAcore SPR; LY6G6D-Fc immobilized; TDB flowed at 37 C
[5] = target: cynomolgus monkey LY6G6D-Fc (cynomolgus monkey); assay: as above; remark: listed apart in the source

| Kd [1] | koff [1] | kon [1] | Kd [2] [nM] | Kd [3] [nM] | Kd [4] [nM] | koff [4] [s⁻¹] | kon [4] [M⁻¹ s⁻¹] | Kd [5] [nM] | koff [5] [s⁻¹] | kon [5] [M⁻¹ s⁻¹] | Binder |
| --- | --- | --- | --- | --- | --- | --- | --- | --- | --- | --- | --- |
| 15.4 nM and 16.5 nM | 0.0399 s⁻¹ and 0.0437 s⁻¹ | 2.6e+06 M⁻¹ s⁻¹ and 2.65e+06 M⁻¹ s⁻¹ | 15.9 | – | – | – | – | – | – | – | LY6G6D TDB assembled using a one-cell system, anti-LY6G6D 20A12.QNTv12 arm (one-cell) and anti-CD3 38E4v1 (WT) arm (bispecific antibody, V domains shown) VH 1: EVQLLESGGGLVQPGGSLRLSCAASGFDFVNNAMIWVREAPGKGLEWVSALSFADNTAYYATWASGRFTISRDSSKTTVYLQMNSLRAEDTAVYYCMRGDLWGPGTLVTVSS VL 1: DIQMTQSPSTLSASVGDRVTITCQASESITRYLNWYQKKPGKAPKLLIYDASKLPSGVPSRFSGSGSGTEFTLTISSLQPDDFATYYCQSTSFRGRSYQNTFGGGTKVEIK VH 2: EVQLVQSGAEVKKPGASVKVSCKASGFTFTSYYIHWVRKAPGQGLEWIGWIYPENDNTKYNEKFKDRVTITADTSTSTAYLELSSLRSEDTAVYYCARDGYSRYYFDYWGQGTLVTVSS VL 2: DIVMTQSPDSLAVSLGERATINCKSSQSLLNSRTRKNYLAWYQEKPGQSPKLLIYWTSTRKSGVPDRFSGSGSGTDFTLTISSLQAEDVAVYYCKQSFILRTFGQGTKVEIK |
| 14 nM and 14.7 nM | 0.0433 s⁻¹ and 0.0426 s⁻¹ | 3.09e+06 M⁻¹ s⁻¹ and 2.89e+06 M⁻¹ s⁻¹ | 14.4 | – | – | – | – | 2.62 | 0.000574 | 219000 | LY6G6D TDB assembled using a one-cell system, anti-LY6G6D 20A12.QNTv12 arm (one-cell) and anti-CD3 38E4.v1 MD4 arm (bispecific antibody, V domains shown) VH 1: EVQLLESGGGLVQPGGSLRLSCAASGFDFVNNAMIWVREAPGKGLEWVSALSFADNTAYYATWASGRFTISRDSSKTTVYLQMNSLRAEDTAVYYCMRGDLWGPGTLVTVSS VL 1: DIQMTQSPSTLSASVGDRVTITCQASESITRYLNWYQKKPGKAPKLLIYDASKLPSGVPSRFSGSGSGTEFTLTISSLQPDDFATYYCQSTSFRGRSYQNTFGGGTKVEIK VH 2: EVQLVQSGAEVKKPGASVKVSCKASGFTFTSYYIHWVRKAPGQGLEWIGWIYPENDNTKYNEKFKDRVTITADTSTSTAYLELSSLRSEDTAVYYCARDGYSRYYFDYWGQGTLVTVSS VL 2: DIVMTQSPDSLAVSLGERATINCKSSQSLLNSRTRKNYLAWYQEKPGQPPKLLIYWASTRKSGVPDRFSGSGSGTDFTLTISSLQAEDVAVYYCKQSFILRTFGQGTKVEIK |

Further lines, the binder ahead of its results:

| Binder | Kd [1] | koff [1] | kon [1] | Kd [2] [nM] | Kd [3] [nM] | Kd [4] [nM] | koff [4] [s⁻¹] | kon [4] [M⁻¹ s⁻¹] | Kd [5] [nM] | koff [5] [s⁻¹] | kon [5] [M⁻¹ s⁻¹] |
| --- | --- | --- | --- | --- | --- | --- | --- | --- | --- | --- | --- |
| LY6G6D TDB comprising the anti-LY6G6D 20A12.QNTv12 arm (two-cell) and the anti-CD3 38E4.v1 arm (bispecific antibody, V domains shown) VH 1: EVQLLESGGGLVQPGGSLRLSCAASGFDFVNNAMIWVRQAPGKGLEWVSALSFADNTAYYATWASGRFTISRDSSKTTVYLQMNSLRAEDTAVYYCMRGDLWGPGTLVTVSS VL 1: DIQMTQSPSTLSASVGDRVTITCQASESITRYLNWYQQKPGKAPKLLIYDASKLPSGVPSRFSGSGSGTEFTLTISSLQPDDFATYYCQSTSFRGRSYQNTFGGGTKVEIK VH 2: EVQLVQSGAEVKKPGASVKVSCKASGFTFTSYYIHWVRQAPGQGLEWIGWIYPENDNTKYNEKFKDRVTITADTSTSTAYLELSSLRSEDTAVYYCARDGYSRYYFDYWGQGTLVTVSS VL 2: DIVMTQSPDSLAVSLGERATINCKSSQSLLNSRTRKNYLAWYQQKPGQSPKLLIYWTSTRKSGVPDRFSGSGSGTDFTLTISSLQAEDVAVYYCKQSFILRTFGQGTKVEIK | 13 nM and 16.5 nM | 0.0337 s⁻¹ and 0.0364 s⁻¹ | 2.6e+06 M⁻¹ s⁻¹ and 2.21e+06 M⁻¹ s⁻¹ | 14.8 | 2.29 | 2.29 | 0.00038 | 166000 | 1.92 | 0.000444 | 231000 |
| LY6G6D TDB assembled using a one-cell system, anti-LY6G6D 20A12.QNTv12 arm (one-cell) and anti-CD3 38E4.v1 MD1 arm (bispecific antibody, V domains shown) VH 1: EVQLLESGGGLVQPGGSLRLSCAASGFDFVNNAMIWVREAPGKGLEWVSALSFADNTAYYATWASGRFTISRDSSKTTVYLQMNSLRAEDTAVYYCMRGDLWGPGTLVTVSS VL 1: DIQMTQSPSTLSASVGDRVTITCQASESITRYLNWYQKKPGKAPKLLIYDASKLPSGVPSRFSGSGSGTEFTLTISSLQPDDFATYYCQSTSFRGRSYQNTFGGGTKVEIK VH 2: EVQLVQSGAEVKKPGASVKVSCKASGFTFTSYYIHWVRKAPGQGLEWIGWIYPENDNTKYNEKFKDRVTITADTSTSTAYLELSSLRSEDTAVYYCARDGYSRYYFDYWGQGTLVTVSS VL 2: DIVMTQSPDSLAVSLGERATINCKSSQSLLNSRTRKNYLAWYQEKPGQPPKLLIYWASTRESGVPDRFSGSGSGTDFTLTISSLQAEDVAVYYCTQSFILRTFGQGTKVEIK | 26.6 nM and 25.6 nM | 0.0383 s⁻¹ and 0.0376 s⁻¹ | 1.44e+06 M⁻¹ s⁻¹ and 1.47e+06 M⁻¹ s⁻¹ | 26.1 | – | – | – | – | 3.63 | 0.000512 | 141000 |
